US20250011363A1, “OPTIMIZED SHORTENED PEPTIDE THAT BINDS TO ACETYLCHOLINE RECEPTOR, AND USE THEREOF” (SKINMED CO., LTD., priority 2021, published 2025)

target: acetylcholine receptor (Homo sapiens, UniProt P02708); assay: SPR binding affinity (RU) of optimized 5mer/6mer/7mer peptides, Examples 6-7; details: 6mer-1 Top sequence; SPR; peptides tested at 10 μM
Method: Based on the frequencies of occurrence of the top 7 amino acids from Table 7 in Example 5, 600 peptides comprising these amino acids (top combinations) and those comprising the 13 less frequently occurring amino acids (bottom combinations) were synthesized for each series of 5mer, 6mer-1, and 6mer-2. The binding affinity of each sequence for the acetylcholine receptor was measured using Surface Plasmon Resonance (SPR) analysis method. The peptides were tested at a concentration of 10 μM. Additionally, the average binding affinities of the top and bottom combinations in each series are depicted in FIGS. 5-7.
Representative peptides identified in Example 6, two in each library, including 5mers (73, 311) and 6mers-1 (43, 210) and 6mers-2 (136, 233), were compared with the pre-optimized 6mer, 5mer-ND, and Synake.

Chain of acetylcholine receptor (P02708 21-457): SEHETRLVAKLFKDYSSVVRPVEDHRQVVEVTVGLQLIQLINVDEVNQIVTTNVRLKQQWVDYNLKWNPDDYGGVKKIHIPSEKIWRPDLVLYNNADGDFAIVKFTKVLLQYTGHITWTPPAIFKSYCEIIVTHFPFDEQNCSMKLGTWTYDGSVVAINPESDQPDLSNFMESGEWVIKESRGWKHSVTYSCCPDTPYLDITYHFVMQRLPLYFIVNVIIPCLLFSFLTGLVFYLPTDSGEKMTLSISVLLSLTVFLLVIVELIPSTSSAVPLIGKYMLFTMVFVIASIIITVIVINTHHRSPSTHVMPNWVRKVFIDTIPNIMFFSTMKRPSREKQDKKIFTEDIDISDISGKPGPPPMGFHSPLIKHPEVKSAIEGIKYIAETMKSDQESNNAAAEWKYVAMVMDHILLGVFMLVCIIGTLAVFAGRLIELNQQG

| Substance | Binding affinity [Ru] |
| --- | --- |
| 6mer-1-349 (KRLYSK) | 123 |
| 6mer-1-220 (KRQRQK) | 148 |
| 6mer-1-351 (RRGLRK) | 141 |
| 6mer-1-226 (RRWITR) | 128 |
| 6mer-1-295 (KRQRCR) | 148 |
| 6mer-1-253 (RRVQLK) | 145 |
| 6mer-1-376 (RRQLRK) | 121 |
| 6mer-1-360 (KRVFLK) | 148 |

same assay, conditions: 6mer-2 Top sequence; SPR; peptides tested at 10 μM

| Substance | Binding affinity [Ru] |
| --- | --- |
| 6mer-2-117 (KRYTRK) | 148 |
| 6mer-2-22 (RQIRKK) | 124 |
| 6mer-2-8 (KSLQKK) | 135 |
| 6mer-2-44 (KSVRRK) | 145 |
| 6mer-2-119 (RSISKK) | 139 |
| 6mer-2-28 (KVLSRK) | 142 |
| 6mer-2-188 (RGYTKR) | 142 |
| 6mer-2-100 (RRRCRR) | 142 |
| 6mer-2-71 (KQVYKR) | 141 |

same assay, conditions: SPR, Resonance Units; 5mer Bottom sequence (bottom combinations); peptides tested at 10 μM

| Substance | Binding affinity [Ru] |
| --- | --- |
| 5mer-707 (KIEAK) | 32 |
| 5mer-614 (RNTWK) | 29 |
| 5mer-620 (RCMHK) | 23 |
| 5mer-922 (RMWKR) | 14 |
| 5mer-1006 (KEPER) | 17 |
| 5mer-662 (KIEEK) | 28 |
| 5mer-950 (KDADR) | 22 |
| 5mer-1001 (KPCGK) | 33 |
| 5mer-1031 (RKEER) | 13 |
| 5mer-735 (RHCER) | 11 |
| 5mer-782 (KANAR) | 32 |
| 5mer-640 (KNPHK) | 15 |
| 5mer-916 (RCHER) | 12 |
| 5mer-730 (KFCNK) | 27 |
| 5mer-915 (KMTHR) | 28 |
| 5mer-1041 (RDWFK) | 27 |

same assay, conditions: SPR, Resonance Units; peptides tested at 10 μM; 6mer-1 Bottom sequence

| Substance | Binding affinity [Ru] |
| --- | --- |
| 6mer-1-1072 (KKCTPR) | 36 |
| 6mer-1-1142 (KKETPR) | 24 |
| 6mer-1-1171 (RKIAFK) | 40 |
| 6mer-1-1168 (KKEKFR) | 40 |
| 6mer-1-1097 (RKNCNK) | 39 |
| 6mer-1-1018 (KKTAFK) | 28 |
| 6mer-1-1159 (RRAWPR) | 39 |

same assay, conditions: SPR, Resonance Units; peptides tested at 10 μM; 6mer-1 Bottom sequence (Table 11)

| Substance | Binding affinity [Ru] |
| --- | --- |
| 6mer-1-656 (RRPTHK) | 28 |
| 6mer-1-742 (RRFHWR) | 14 |
| 6mer-1-643 (KRYSMR) | 31 |
| 6mer-1-712 (KKPSNK) | 24 |

same assay, conditions: SPR, Resonance Units; peptides tested at 10 μM; 6mer-2 Bottom sequence

| Substance | Binding affinity [Ru] |
| --- | --- |
| 6mer-2-952 (KYWGRR) | 24 |
| 6mer-2-971 (KEMFRK) | 29 |
| 6mer-2-944 (KPEDKK) | 35 |
| 6mer-2-806 (KHCVRK) | 30 |
| 6mer-2-627 (KKTARR) | 33 |
| 6mer-2-901 (RYWDRK) | 34 |
| 6mer-2-918 (KNWMRK) | 35 |
| 6mer-2-980 (KESGKR) | 34 |
| 6mer-2-877 (KPPERR) | 17 |

same assay, conditions: SPR, Resonance Units; peptides tested at 10 μM; 6mer-2 Top sequence

| Substance | Binding affinity [Ru] |
| --- | --- |
| 6mer-2-417 (RWVYKK) | 151 |
| 6mer-2-404 (RVLSKR) | 121 |
| 6mer-2-476 (KGIRKK) | 148 |
| 6mer-2-479 (KWRLKK) | 154 |
| 6mer-2-522 (RVVLRK) | 124 |
| 6mer-2-456 (KSVTKR) | 147 |
| 6mer-2-550 (RSFTKK) | 148 |
| 6mer-2-516 (RQQQKK) | 146 |

same assay, conditions: SPR, Resonance Units; peptides tested at 10 μM; 6mer-2 Top sequence (Table 12)

| Substance | Binding affinity [Ru] |
| --- | --- |
| 6mer-2-211 (RGLSRR) | 135 |
| 6mer-2-236 (KWQQKK) | 131 |
| 6mer-2-317 (RGLYKR) | 135 |
| 6mer-2-322 (RRYSRR) | 148 |
| 6mer-2-305 (KQFYKK) | 154 |
| 6mer-2-257 (KRFCRK) | 144 |
| 6mer-2-393 (RGLQRK) | 145 |

same assay, conditions: SPR, peptides at 10 μM; 6mer-2 Bottom sequence

| Substance | Binding affinity [Ru] |
| --- | --- |
| 6mer-2-1138 (KAHFKK) | 42 |
| 6mer-2-1172 (KNCERR) | 36 |
| 6mer-2-1000 (KCHDKK) | 41 |
| 6mer-2-1092 (RAKFRR) | 21 |
| 6mer-2-1170 (KFTIRR) | 25 |
| 6mer-2-1019 (RNTWKK) | 23 |
| 6mer-2-996 (RHDARK) | 40 |
| 6mer-2-1108 (KKKVRR) | 36 |
| 6mer-2-1175 (RYSKRR) | 34 |
| 6mer-2-1188 (RAPARR) | 22 |

same assay, conditions: SPR, peptides tested at 10 μM; 5mer Top sequence

| Substance | Binding affinity [Ru] |
| --- | --- |
| 5mer-371 (RGISK) | 86 |
| 5mer-472 (RRYRK) | 55 |
| 5mer-98 (KWYCK) | 68 |
| 5mer-448 (RQIRK) | 74 |
| 5mer-503 (KRVSK) | 61 |
| 5mer-128 (RGVCR) | 56 |
| 5mer-483 (RSISR) | 51 |
| 5mer-492 (RVVLR) | 80 |
| 5mer-81 (RGIYR) | 79 |
| 5mer-348 (KRQTK) | 80 |
| 5mer-101 (RQQYR) | 55 |
| 5mer-304 (RSVRK) | 76 |
| 5mer-28 (RLLSR) | 74 |
| 5mer-485 (KRQRK) | 58 |
| 5mer-419 (RVYTR) | 67 |
| 5mer-328 (RWVLK) | 61 |
| 5mer-50 (KLLCR) | 63 |
| 5mer-163 (KSLCK) | 61 |
| 5mer-466 (RRVRK) | 53 |
| 5mer-504 (KQIQR) | 72 |

same assay, conditions: SPR, peptides tested at 10 μM; 5mer Top sequence (top combinations)

| Substance | Binding affinity [Ru] |
| --- | --- |
| 5mer-214 (KQQCK) | 79 |
| 5mer-265 (RWQCR) | 77 |
| 5mer-264 (KWYRK) | 50 |
| 5mer-557 (KQRRK) | 87 |
| 5mer-580 (RGYTR) | 70 |
| 5mer-513 (RWYYK) | 83 |
| 5mer-534 (RRQLR) | 50 |
| 5mer-576 (RLFRK) | 62 |
| 5mer-548 (KWLCK) | 60 |

same assay, conditions: SPR, peptides tested at 10 μM; 6mer-1 Bottom sequence (Table 11)

| Substance | Binding affinity [Ru] |
| --- | --- |
| 6mer-1-953 (KRTNGK) | 26 |
| 6mer-1-801 (KKCAVK) | 18 |
| 6mer-1-949 (RKEMPR) | 37 |
| 6mer-1-997 (KKPTFR) | 35 |
| 6mer-1-993 (KRAHDK) | 26 |
| 6mer-1-874 (KRANHK) | 18 |

same assay, conditions: SPR, peptides tested at 10 μM; 6mer-1 Top sequence

| Substance | Binding affinity [Ru] |
| --- | --- |
| 6mer-1-441 (RRVYYR) | 146 |
| 6mer-1-582 (KRWFLK) | 137 |
| 6mer-1-422 (KRVRQR) | 154 |
| 6mer-1-412 (RKSILK) | 139 |
| 6mer-1-503 (KRRLCK) | 151 |
| 6mer-1-409 (RRWISR) | 144 |
| 6mer-1-489 (KKVITK) | 148 |
| 6mer-1-596 (RKGVLR) | 148 |
| 6mer-1-588 (RRLVRK) | 153 |
| 6mer-1-571 (RKLLCK) | 154 |
| 6mer-1-536 (RRWFRK) | 151 |
| 6mer-1-459 (RRWVYK) | 131 |

same assay, conditions: SPR, peptides tested at 10 μM; 6mer-1 Top sequence (top combinations)

| Substance | Binding affinity [Ru] |
| --- | --- |
| 6mer-1-132 (RRQVYR) | 153 |
| 6mer-1-135 (KRQVSR) | 123 |
| 6mer-1-130 (RKQVLR) | 142 |
| 6mer-1-20 (KKSRYK) | 147 |
| 6mer-1-151 (KRGVRR) | 145 |
| 6mer-1-140 (KRQVQR) | 148 |
| 6mer-1-182 (KRGICK) | 147 |
| 6mer-1-59 (KRLQCK) | 145 |

same assay, conditions: SPR; XRRGVRR-7mer and RRGVRRX-7mer

| Substance | Binding affinity, values relative to the RRGVRR sequence |
| --- | --- |
| 3661 (RRGVRRG) [compound 3661] | 105 |

same assay, conditions: SPR; XRRQRR-6mer and RRQRRX-6mer

| Substance | Binding affinity, relative value to the RRQRR sequence |
| --- | --- |
| 3612 (TRRQRR) [compound 3612] | 103 |
| 3637 (RRQRRR) [compound 3637] | 192 |

same assay, conditions: SPR; peptides tested at 10 μM; 5mer Bottom sequence

| Substance | Binding affinity [Ru] |
| --- | --- |
| 5mer-887 (KTPVR) | 30 |
| 5mer-1184 (RDSMK) | 14 |
| 5mer-1154 (KCWVR) | 12 |
| 5mer-852 (KDSMK) | 22 |
| 5mer-1185 (KPTGR) | 30 |
| 5mer-1117 (RHKIR) | 11 |
| 5mer-874 (RIHMR) | 27 |
| 5mer-862 (KKNAK) | 19 |
| 5mer-845 (RYEDR) | 15 |
